# Reference: patent US20210246166A1 (Bayer, published 2021)
# Numbered stars: 1 amine (or outer) side, 2 acyl side, 3 side chain; on linkers, the order of the positions; unused ones are H or OH. Bridge positions count the residues as written; N and C are the ends. Square brackets hold non-standard residues; d marks the D form. Ends that are not written are not given here. * marks the point of attachment. (S)‑4‑Piperazine‑2‑carboxylic acid = (S)-4-piperazine-2-carboxylic acid; X11 = (S)‑Piperidine‑3‑carboxylic acid, O=C([C@H]1CCCN([*:1])C1)[*:2]; X14 = (2,4-dioxoimidazolidin-1-yl)acetic acid, O=C1CN(CC(=O)*)C(=O)N1; Piperidin‑4‑ylacetic acid = O=C(CC1CCNCC1)*; Nip(3R) = O=C([C@@H]1CCCN([*:1])C1)[*:2]; Oic = O=C(O)[C@@H]1C[C@@H]2CCCC[C@@H]2N1; βPro(3R) = O=C([C@@H]1CCN([*:1])C1)[*:2]; PEG6 = NCCOCCOCCOCCOCCOCCOCCC(=O)O; tBuAla = CC(C)(C)C[C@H](N)C(=O)O; Pen = CC(C)(S)[C@H](N)C(=O)O; PEG3 = NCCOCCOCCOCCC(=O)O; Orn = NCCC[C@H](N)C(=O)O; Ahx = NCCCCCC(=O)O; Sar = CNCC(=O)O
# T1: Recombinant human MASP1 enzyme (fragment corresponding to amino acids 297-699, C-terminal His Tag) (human, UniProt P48740 297-699)
# T1 sequence: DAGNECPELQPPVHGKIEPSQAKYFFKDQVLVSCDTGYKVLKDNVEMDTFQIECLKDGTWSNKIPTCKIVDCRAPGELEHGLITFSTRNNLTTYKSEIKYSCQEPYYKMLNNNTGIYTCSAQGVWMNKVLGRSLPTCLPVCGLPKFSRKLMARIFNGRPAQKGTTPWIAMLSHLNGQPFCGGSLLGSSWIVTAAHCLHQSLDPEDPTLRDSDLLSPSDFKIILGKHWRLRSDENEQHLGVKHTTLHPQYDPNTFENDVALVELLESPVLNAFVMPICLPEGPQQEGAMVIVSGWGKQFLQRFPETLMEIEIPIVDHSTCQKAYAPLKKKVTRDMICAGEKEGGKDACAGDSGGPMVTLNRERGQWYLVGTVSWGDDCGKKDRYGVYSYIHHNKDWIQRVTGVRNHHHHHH
# B1: ((N-Me)G)-IC+SRSLP-(Oic)-I-(Pen)+IP-(PEG5(22 atoms))-OH (peptide)
# peptide: [Sar]ICSRSLP[Oic]I[Pen]IP[PEG6]-OH
# modifications: disulfide 3-11; N-terminus assumed
# SMILES: CC[C@H](C)[C@H](NC(=O)CNC)C(=O)N[C@H]1CSSC(C)(C)[C@@H](C(=O)N[C@H](C(=O)N2CCC[C@H]2C(=O)NCCOCCOCCOCCOCCOCCOCCC(=O)O)[C@@H](C)CC)NC(=O)[C@H]([C@@H](C)CC)NC(=O)[C@@H]2C[C@@H]3CCCC[C@@H]3N2C(=O)[C@@H]2CCCN2C(=O)[C@H](CC(C)C)NC(=O)[C@H](CO)NC(=O)[C@H](CCCNC(=N)N)NC(=O)[C@H](CO)NC1=O
# B2: ((N-Me)G)-IC+SRSLP-(Oic)-I-(Pen)+IPD-(Ahx)-OH (peptide)
# peptide: [Sar]ICSRSLP[Oic]I[Pen]IPD[Ahx]-OH
# modifications: disulfide 3-11; N-terminus assumed
# SMILES: CC[C@H](C)[C@H](NC(=O)CNC)C(=O)N[C@H]1CSSC(C)(C)[C@@H](C(=O)N[C@H](C(=O)N2CCC[C@H]2C(=O)N[C@@H](CC(=O)O)C(=O)NCCCCCC(=O)O)[C@@H](C)CC)NC(=O)[C@H]([C@@H](C)CC)NC(=O)[C@@H]2C[C@@H]3CCCC[C@@H]3N2C(=O)[C@@H]2CCCN2C(=O)[C@H](CC(C)C)NC(=O)[C@H](CO)NC(=O)[C@H](CCCNC(=N)N)NC(=O)[C@H](CO)NC1=O
# B3: (Piperidin-4-ylacetic acid)-IC+SRS-((tBu)A)-PPIC+IPD-OH (peptide)
# peptide: {Piperidin‑4‑ylacetic acid}-ICSRS[tBuAla]PPICIPD-OH
# modifications: disulfide 2-10
# SMILES: CC[C@H](C)[C@H](NC(=O)CC1CCNCC1)C(=O)N[C@H]1CSSC[C@@H](C(=O)N[C@H](C(=O)N2CCC[C@H]2C(=O)N[C@@H](CC(=O)O)C(=O)O)[C@@H](C)CC)NC(=O)[C@H]([C@@H](C)CC)NC(=O)[C@@H]2CCCN2C(=O)[C@@H]2CCCN2C(=O)[C@H](CC(C)(C)C)NC(=O)[C@H](CO)NC(=O)[C@H](CCCNC(=N)N)NC(=O)[C@H](CO)NC1=O
# B4: ((N-Me)G)-IC+SRSLP-(Oic)-I-(Pen)+IP-((R)-Pyrrolidine-3-carboxylic acid)-OH (peptide)
# peptide: [Sar]ICSRSLP[Oic]I[Pen]IP[βPro(3R)]-OH
# modifications: disulfide 3-11; N-terminus assumed
# SMILES: CC[C@H](C)[C@H](NC(=O)CNC)C(=O)N[C@H]1CSSC(C)(C)[C@@H](C(=O)N[C@H](C(=O)N2CCC[C@H]2C(=O)N2CC[C@@H](C(=O)O)C2)[C@@H](C)CC)NC(=O)[C@H]([C@@H](C)CC)NC(=O)[C@@H]2C[C@@H]3CCCC[C@@H]3N2C(=O)[C@@H]2CCCN2C(=O)[C@H](CC(C)C)NC(=O)[C@H](CO)NC(=O)[C@H](CCCNC(=N)N)NC(=O)[C@H](CO)NC1=O
# B5: ((N-Me)G)-IC+SRSLP-(Oic)-I-(Pen)+IPDK-OH (peptide)
# peptide: [Sar]ICSRSLP[Oic]I[Pen]IPDK-OH
# modifications: disulfide 3-11; N-terminus assumed
# SMILES: CC[C@H](C)[C@H](NC(=O)CNC)C(=O)N[C@H]1CSSC(C)(C)[C@@H](C(=O)N[C@H](C(=O)N2CCC[C@H]2C(=O)N[C@@H](CC(=O)O)C(=O)N[C@@H](CCCCN)C(=O)O)[C@@H](C)CC)NC(=O)[C@H]([C@@H](C)CC)NC(=O)[C@@H]2C[C@@H]3CCCC[C@@H]3N2C(=O)[C@@H]2CCCN2C(=O)[C@H](CC(C)C)NC(=O)[C@H](CO)NC(=O)[C@H](CCCNC(=N)N)NC(=O)[C@H](CO)NC1=O
# B6: ((2,4-dioxoimidazolidin-1-yl)acetic acid)-IC+SRSLP-(Oic)-I-(Pen)+IPD-OH (peptide)
# peptide: X14-ICSRSLP[Oic]I[Pen]IPD-OH
# modifications: disulfide 2-10
# SMILES: CC[C@H](C)[C@H](NC(=O)CN1CC(=O)NC1=O)C(=O)N[C@H]1CSSC(C)(C)[C@@H](C(=O)N[C@H](C(=O)N2CCC[C@H]2C(=O)N[C@@H](CC(=O)O)C(=O)O)[C@@H](C)CC)NC(=O)[C@H]([C@@H](C)CC)NC(=O)[C@@H]2C[C@@H]3CCCC[C@@H]3N2C(=O)[C@@H]2CCCN2C(=O)[C@H](CC(C)C)NC(=O)[C@H](CO)NC(=O)[C@H](CCCNC(=N)N)NC(=O)[C@H](CO)NC1=O
# B7: ((N-Me))-GIC+SRSLP-(Oic)-I-(Pen)+I-((S)-4-Piperazine-2-carboxylic acid)-OH (peptide)
# peptide: [Sar]ICSRSLP[Oic]I[Pen]I[(S)‑4‑Piperazine‑2‑carboxylic acid]-OH
# modifications: disulfide 3-11
# B8: ((N-Me)G)-IC+SRSLP-(Oic)-I-(Pen)+IPGD-OH (peptide)
# peptide: [Sar]ICSRSLP[Oic]I[Pen]IPGD-OH
# modifications: disulfide 3-11; N-terminus assumed
# SMILES: CC[C@H](C)[C@H](NC(=O)CNC)C(=O)N[C@H]1CSSC(C)(C)[C@@H](C(=O)N[C@H](C(=O)N2CCC[C@H]2C(=O)NCC(=O)N[C@@H](CC(=O)O)C(=O)O)[C@@H](C)CC)NC(=O)[C@H]([C@@H](C)CC)NC(=O)[C@@H]2C[C@@H]3CCCC[C@@H]3N2C(=O)[C@@H]2CCCN2C(=O)[C@H](CC(C)C)NC(=O)[C@H](CO)NC(=O)[C@H](CCCNC(=N)N)NC(=O)[C@H](CO)NC1=O
# B9: ((N-Me)G)-IC+SRSLP-(Oic)-I-(Pen)+IP-(*Dap)-OH (peptide)
# peptide: [Sar]ICSRSLP[Oic]I[Pen]IPX-OH
# modifications: disulfide 3-11; not fully specified (residue 14); printed as ((N-Me)G)-IC+SRSLP-(Oic)-I-(Pen)+IP-(*Dap)-OH; also: C-terminal Dap joined through its 3-amino group
# B10: ((N-Me)G)-IC+SRSLP-(Oic)-I-(Pen)+IP-(PEG2(13 atoms))-OH (peptide)
# peptide: [Sar]ICSRSLP[Oic]I[Pen]IP[PEG3]-OH
# modifications: disulfide 3-11; N-terminus assumed
# SMILES: CC[C@H](C)[C@H](NC(=O)CNC)C(=O)N[C@H]1CSSC(C)(C)[C@@H](C(=O)N[C@H](C(=O)N2CCC[C@H]2C(=O)NCCOCCOCCOCCC(=O)O)[C@@H](C)CC)NC(=O)[C@H]([C@@H](C)CC)NC(=O)[C@@H]2C[C@@H]3CCCC[C@@H]3N2C(=O)[C@@H]2CCCN2C(=O)[C@H](CC(C)C)NC(=O)[C@H](CO)NC(=O)[C@H](CCCNC(=N)N)NC(=O)[C@H](CO)NC1=O
# B11: (Orn)-IC+SRSLP-(Oic)-I-(Pen)+IPD-OH (peptide)
# peptide: [Orn]ICSRSLP[Oic]I[Pen]IPD-OH
# modifications: disulfide 3-11; N-terminus assumed
# SMILES: CC[C@H](C)[C@H](NC(=O)[C@@H](N)CCCN)C(=O)N[C@H]1CSSC(C)(C)[C@@H](C(=O)N[C@H](C(=O)N2CCC[C@H]2C(=O)N[C@@H](CC(=O)O)C(=O)O)[C@@H](C)CC)NC(=O)[C@H]([C@@H](C)CC)NC(=O)[C@@H]2C[C@@H]3CCCC[C@@H]3N2C(=O)[C@@H]2CCCN2C(=O)[C@H](CC(C)C)NC(=O)[C@H](CO)NC(=O)[C@H](CCCNC(=N)N)NC(=O)[C@H](CO)NC1=O
# B12: ((R)-Piperidine-3-carboxylic acid)-IC+SRSLP-(Oic)-I-(Pen)+I-OH (peptide)
# peptide: [Nip(3R)]ICSRSLP[Oic]I[Pen]I-OH
# modifications: disulfide 3-11; N-terminus assumed
# SMILES: CC[C@H](C)[C@H](NC(=O)[C@H]1NC(=O)[C@H]([C@@H](C)CC)NC(=O)[C@@H]2C[C@@H]3CCCC[C@@H]3N2C(=O)[C@@H]2CCCN2C(=O)[C@H](CC(C)C)NC(=O)[C@H](CO)NC(=O)[C@H](CCCNC(=N)N)NC(=O)[C@H](CO)NC(=O)[C@@H](NC(=O)[C@@H](NC(=O)[C@@H]2CCCNC2)[C@@H](C)CC)CSSC1(C)C)C(=O)O
# B13: AIC+SRSLP-(Oic)-I-(Pen)+IP-(*Dap)-OH (peptide)
# peptide: AICSRSLP[Oic]I[Pen]IP[βDap]-OH
# modifications: disulfide 3-11; also: C-terminal Dap bonded through its side-chain amino group
# B14: ((N-Me)G)-IC+SRSLP-(Oic)-I-(Pen)+IP-(PEG4-CH2CO2H (15 atoms))-OH (peptide)
# peptide: [Sar]ICSRSLP[Oic]I[Pen]IP[PEG4‑CH2CO2H (15 atoms)]-OH
# modifications: disulfide 3-11
# B15: ((S)-Piperidine-3-carboxylic acid)-IC+SRSLP-(Oic)-I-(Pen)+I-OH (peptide)
# peptide: [X11]ICSRSLP[Oic]I[Pen]I-OH
# modifications: disulfide 3-11; N-terminus assumed
# SMILES: CC[C@H](C)[C@H](NC(=O)[C@H]1NC(=O)[C@H]([C@@H](C)CC)NC(=O)[C@@H]2C[C@@H]3CCCC[C@@H]3N2C(=O)[C@@H]2CCCN2C(=O)[C@H](CC(C)C)NC(=O)[C@H](CO)NC(=O)[C@H](CCCNC(=N)N)NC(=O)[C@H](CO)NC(=O)[C@@H](NC(=O)[C@@H](NC(=O)[C@H]2CCCNC2)[C@@H](C)CC)CSSC1(C)C)C(=O)O
# B16: ((N-Me)G)-IC+SRSLP-(Oic)-I-(Pen)+IPDD-OH (peptide)
# peptide: [Sar]ICSRSLP[Oic]I[Pen]IPDD-OH
# modifications: disulfide 3-11; N-terminus assumed
# SMILES: CC[C@H](C)[C@H](NC(=O)CNC)C(=O)N[C@H]1CSSC(C)(C)[C@@H](C(=O)N[C@H](C(=O)N2CCC[C@H]2C(=O)N[C@@H](CC(=O)O)C(=O)N[C@@H](CC(=O)O)C(=O)O)[C@@H](C)CC)NC(=O)[C@H]([C@@H](C)CC)NC(=O)[C@@H]2C[C@@H]3CCCC[C@@H]3N2C(=O)[C@@H]2CCCN2C(=O)[C@H](CC(C)C)NC(=O)[C@H](CO)NC(=O)[C@H](CCCNC(=N)N)NC(=O)[C@H](CO)NC1=O
# Target: T1, Recombinant human MASP1 enzyme …
# Experiment: cell-based or functional assay
row,human MASP1 IC50 [nM],Binder
1,4,B1
2,0.41,B2
3,26,B3
4,28,B4
5,3.8,B5
6,17,B6
7,2.4,B7
8,1,B8
9,6.6,B9
10,4.5,B10
11,1.9,B11
12,4.3,B12
13,5.1,B13
14,1.8,B14
15,8.2,B15
16,0.72,B16

# Target: Recombinant human MASP2 enzyme (fragment corresponding to amino acids 297-686, C-terminal His Tag) (human, UniProt O00187 297-686)
# Experiment: cell-based or functional assay
# Recombinant human MASP2 enzyme (fragment corresponding to amino acids 297-686, C-terminal His Tag), sequence (O00187 other isoform, or with tags, fused parts or gaps limits assumed): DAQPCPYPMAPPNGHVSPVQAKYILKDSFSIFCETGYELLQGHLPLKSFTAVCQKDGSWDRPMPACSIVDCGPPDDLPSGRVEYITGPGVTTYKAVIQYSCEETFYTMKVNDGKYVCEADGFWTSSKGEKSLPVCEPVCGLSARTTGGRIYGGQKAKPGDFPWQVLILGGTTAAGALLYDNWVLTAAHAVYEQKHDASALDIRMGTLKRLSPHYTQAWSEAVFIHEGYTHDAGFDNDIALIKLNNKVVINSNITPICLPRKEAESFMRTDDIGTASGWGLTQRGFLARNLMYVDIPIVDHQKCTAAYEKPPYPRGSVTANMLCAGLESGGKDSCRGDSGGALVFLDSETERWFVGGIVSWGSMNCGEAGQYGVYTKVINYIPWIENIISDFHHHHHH
row,human MASP2 IC50 [nM],Binder
1,51,B1
2,120,B2
3,18,B3
4,166,B4
5,260,B5
6,45,B6
7,78,B7
8,45,B8
9,55,B9
10,97,B10
11,110,B11
12,200,B12
13,210,B13
14,58,B14
15,140,B15
16,40,B16
